The text below walks through data of US20170233472A1 (MacroGenics, published 2017).

Where a chain is given by its changes, count along the chain named. Names may count otherwise.

Sequences and labels used below:
B1: TRIDENT-A (other)
chain 1: QLVLTQSPSASASLGSSVKLTCTLSSGHKTDTIDWYQQQPGKAPRYLMKLEGSGSYNKGSGVPDRFGSGSSSGADRYLTISSLQSEDEADYYCGTDYPGNYLFGGGTQLTVLGGGGSGGGGEVQLVESGGGLVQPGGSLRLSCAASGFTFSTYAMNWVRQAPGKGLEWVGRIRSKYNNYATYYADSVKGRFTISRDDSKNSLYLQMNSLKTEDTAVYYCVRHGNFGNSYVSWFAYWGQGTLVTVSSASTKGEVAACEKEVAALEKEVAALEKEVAALEKGGGDKTHTCPPCPAPEAAGGPSVFLFPPKPKDTLMISRTPEVTCVVVDVSHEDPEVKFNWYVDGVEVHNAKTKPREEQYNSTYRVVSVLTVLHQDWLNGKEYKCKVSNKALPAPIEKTISKAKGQPREPQVYTLPPSREEMTKNQVSLWCLVKGFYPSDIAVEWESNGQPENNYKTTPPVLDSDGSFFLYSKLTVDKSRWQQGNVFSCSVMHEALHNHYTQKSLSLSPGK
chain 2: QAVVTQEPSLTVSPGGTVTLTCRSSTGAVTTSNYANWVQQKPGQAPRGLIGGTNKRAPWTPARFSGSLLGGKAALTITGAQAEDEADYYCALWYSNLWVFGGGTKLTVLGGGGSGGGGQEQLVESGGGLVQPGGSLRLSCAASGFTFSDYYMSWVRQAPGKGLEWVATIYPSSGKTYYADSVKGRFTISSDNAKNSLYLQMNSLRAEDTAVYYCARDSYADDAALFDIWGQGTTVTVSSASTKGKVAACKEKVAALKEKVAALKEKVAALKE
chain 3: DIQMTQSPSSLSASVGDRVTITCKGSQDINNYLAWYQQKPGKAPKLLIYNTDILHTGVPSRFSGSGSGTDFTFTISSLQPEDIATYYCYQYNNGYTFGCGTKVEIKGGGGSGGGGSGGGGSQVQLVESGGGVVQPGRSLRLSCAASGFTFSDFGMNWVRQAPGKCLEWVALIYYDGSNKFYADSVKGRFTISRDNSKNTLYLQMNSLRAEDTAVYYCAKPHYDGYYHFFDSWGQGTLVTVSSVEPKSADKTHTCPPCPAPEAAGGPSVFLFPPKPKDTLMISRTPEVTCVVVDVSHEDPEVKFNWYVDGVEVHNAKTKPREEQYNSTYRVVSVLTVLHQDWLNGKEYKCKVSNKALPAPIEKTISKAKGQPREPQVYTLPPSREEMTKNQVSLSCAVKGFYPSDIAVEWESNGQPENNYKTTPPVLDSDGSFFLVSKLTVDKSRWQQGNVFSCSVMHEALHNRYTQKSLSLSPGK
notes: parental anti-ROR1-VL/VH, CD3 mAb 1 (D65G), TRX2 (anti-CD8) as scFv-Fc third chain
B2: TRIDENT-B (other)
chain 1: B1 chain 1
chain 2: B1 chain 2
heavy: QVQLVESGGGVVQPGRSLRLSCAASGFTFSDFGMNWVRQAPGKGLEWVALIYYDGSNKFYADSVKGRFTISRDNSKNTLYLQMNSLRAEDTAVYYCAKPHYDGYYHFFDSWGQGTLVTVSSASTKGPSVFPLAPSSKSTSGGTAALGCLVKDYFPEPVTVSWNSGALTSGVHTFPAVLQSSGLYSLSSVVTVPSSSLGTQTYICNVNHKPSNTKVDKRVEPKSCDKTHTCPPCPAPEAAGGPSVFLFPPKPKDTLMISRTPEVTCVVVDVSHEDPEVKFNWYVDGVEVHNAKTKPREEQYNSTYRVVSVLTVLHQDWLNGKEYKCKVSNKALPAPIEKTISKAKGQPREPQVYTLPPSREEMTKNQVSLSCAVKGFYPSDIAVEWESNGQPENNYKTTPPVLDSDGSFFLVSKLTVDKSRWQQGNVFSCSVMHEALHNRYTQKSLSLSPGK
light: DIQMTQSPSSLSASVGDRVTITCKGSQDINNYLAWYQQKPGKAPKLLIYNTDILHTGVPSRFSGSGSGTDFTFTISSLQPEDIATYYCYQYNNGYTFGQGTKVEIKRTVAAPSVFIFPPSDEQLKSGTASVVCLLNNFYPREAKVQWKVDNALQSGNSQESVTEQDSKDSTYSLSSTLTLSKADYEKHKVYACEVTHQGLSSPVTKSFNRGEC
notes: parental anti-ROR1-VL/VH, CD3 mAb 1 (D65G), TRX2 (anti-CD8) as Fab-type heavy and light chains
B3: TRIDENT-C (other)
chain 1: QLVLTQSPSASASLGSSVKLTCTLSSGHKTDTIDWYQQQPGKAPRYLMKLEGSGSYNKGSGVPDRFSGSSSGADWYLTISSLQSEDEADYYCGTDYPGNYLFGGGTQLTVLGGGGSGGGGEVQLVESGGGLVQPGGSLRLSCAASGFTFSTYAMNWVRQAPGKGLEWVGRIRSKYNNYATYYADSVKGRFTISRDDSKNSLYLQMNSLKTEDTAVYYCVRHGNFGNSYVSWFAYWGQGTLVTVSSASTKGEVAACEKEVAALEKEVAALEKEVAALEKGGGDKTHTCPPCPAPEAAGGPSVFLFPPKPKDTLMISRTPEVTCVVVDVSHEDPEVKFNWYVDGVEVHNAKTKPREEQYNSTYRVVSVLTVLHQDWLNGKEYKCKVSNKALPAPIEKTISKAKGQPREPQVYTLPPSREEMTKNQVSLWCLVKGFYPSDIAVEWESNGQPENNYKTTPPVLDSDGSFFLYSKLTVDKSRWQQGNVFSCSVMHEALHNHYTQKSLSLSPGK
chain 2: B1 chain 2 with V155I, V182A, F186L, N195D, A215T
chain 3: B1 chain 3
notes: anti-ROR1-VL(14) and VH(8)
B4: TRIDENT-D (other)
chain 1: B3 chain 1
chain 2: B1 chain 2 with V155I, V182A, F186L, N195D, A215T
heavy: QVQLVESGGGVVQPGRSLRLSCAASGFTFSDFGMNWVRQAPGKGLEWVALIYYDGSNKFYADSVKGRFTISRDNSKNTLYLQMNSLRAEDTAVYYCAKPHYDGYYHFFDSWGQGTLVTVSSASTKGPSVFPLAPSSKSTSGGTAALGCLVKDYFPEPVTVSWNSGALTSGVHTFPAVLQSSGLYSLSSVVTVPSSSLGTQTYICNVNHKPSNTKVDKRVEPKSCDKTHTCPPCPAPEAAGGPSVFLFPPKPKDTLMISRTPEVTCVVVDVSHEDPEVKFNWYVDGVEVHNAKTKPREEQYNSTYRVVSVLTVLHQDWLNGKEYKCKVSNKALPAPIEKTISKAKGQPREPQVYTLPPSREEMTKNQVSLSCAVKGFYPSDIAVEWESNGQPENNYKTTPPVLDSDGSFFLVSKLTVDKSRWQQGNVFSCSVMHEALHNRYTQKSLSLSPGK
light: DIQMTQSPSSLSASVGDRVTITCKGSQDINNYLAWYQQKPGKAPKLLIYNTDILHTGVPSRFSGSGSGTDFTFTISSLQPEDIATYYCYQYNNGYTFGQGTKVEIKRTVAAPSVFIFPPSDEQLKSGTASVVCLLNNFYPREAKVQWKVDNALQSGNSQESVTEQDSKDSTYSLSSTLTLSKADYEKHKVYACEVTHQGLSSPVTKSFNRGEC
B5: DART-27 (bispecific antibody)
chain 1: QLVLTQSPSASASLGSSVKLTCTLSSGHKTDTIDWYQQQPGKAPRYLMKLEGSGSYNKGSGVPDRFGSGISSGADWYLTISSLQSEDEADYYCGTDYPGNYLFGGGTQLTVLGGGGSGGGGEVQLVESGGGLVQPGGSLRLSCAASGFTFSTYAMNWVRQAPGKGLEWVGRIRSKYNNYATYYADSVKGRFTISRDDSKNSLYLQMNSLKTEDTAVYYCVRHGNFGNSYVSWFAYWGQGTLVTVSSGGCGGGKVAALKEKVAALKEKVAALKEKVAALKE
chain 2: QAVVTQEPSLTVSPGGTVTLTCRSSTGAVTTSNYANWVQQKPGQAPRGLIGGTNKRAPWTPARFSGSLLGGKAALTITGAQAEDEADYYCALWYSNLWVFGGGTKLTVLGGGGSGGGGQEQLVESGGGLVQPGGSLRLSCAASGFTFSDYYMSWVRQAPGKGLEWVATIYPSSGKTYYADSVKGRFTISSDNAKNSLYLQMNSLRAEDTAVYYCTRDSYADDAALFDIWGQGTTVTVSSGGCGGGEVAALEKEVAALEKEVAALEKEVAALEK
notes: ROR1×CD3 two chain diabody; VL(12): S66I R71W; VH(3): A93T
B6: DART-29 (bispecific antibody)
chain 1: B5 chain 1 with I70S, Y97N
chain 2: B5 chain 2 with F186L, N195D
notes: ROR1×CD3 two chain diabody; VL(11): R71W/Y92N; VH(7): F67L/N76D/A93T
B7: DART-24 (bispecific antibody)
chain 1: B5 chain 1 with I70S, W76R, Y97N
chain 2: B5 chain 2
notes: ROR1×CD3 two chain diabody; VL(10): Y92N; VH(3): A93T
B8: DART-26 (bispecific antibody)
chain 1: B5 chain 1 with I70S, Y97N
chain 2: B5 chain 2
notes: ROR1×CD3 two chain diabody; VL(11): R71W/Y92N; VH(3): A93T
B9: DART-28 (bispecific antibody)
chain 1: B5 chain 1 with Y97N
chain 2: B5 chain 2
notes: ROR1×CD3 two chain diabody; VL(13): S66I/R71W/Y92N; VH(3): A93T
B10: DART-33 (bispecific antibody)
chain 1: QLVLTQSPSASASLGSSVKLTCTLSSGHKTDTIDWYQQQPGKAPRYLMKLEGSGSYNKGSGVPDRFSGSSSGADWYLTISSLQSEDEADYYCGTDYPGNYLFGGGTQLTVLGGGGSGGGGEVQLVESGGGLVQPGGSLRLSCAASGFTFSTYAMNWVRQAPGKGLEWVGRIRSKYNNYATYYADSVKGRFTISRDDSKNSLYLQMNSLKTEDTAVYYCVRHGNFGNSYVSWFAYWGQGTLVTVSSGGCGGGKVAALKEKVAALKEKVAALKEKVAALKE
chain 2: B5 chain 2 with V155I, V182A, F186L, N195D
notes: ROR1×CD3 two chain diabody
B11: DART-25 (bispecific antibody)
chain 1: B5 chain 1 with I70S
chain 2: B5 chain 2 with F186L, N195D
notes: ROR1×CD3 two chain diabody
B12: DART-30 (bispecific antibody)
chain 1: B5 chain 1
chain 2: B5 chain 2 with F186L, N195D
notes: ROR1×CD3 two chain diabody; VL(12): S66I/R71W; VH(7): F67L N76D A93T
B13: DART-31 (bispecific antibody)
chain 1: B5 chain 1 with Y97N
chain 2: B5 chain 2 with F186L, N195D
notes: ROR1×CD3 two chain diabody; VL(13): S66I/R71W/Y92N; VH(7): F67L/N76D/A93T
B14: DART-23 (bispecific antibody)
chain 1: B5 chain 1 with I70S
chain 2: B5 chain 2 with N195D, T215A

T2 sequence (Q01973 30-406): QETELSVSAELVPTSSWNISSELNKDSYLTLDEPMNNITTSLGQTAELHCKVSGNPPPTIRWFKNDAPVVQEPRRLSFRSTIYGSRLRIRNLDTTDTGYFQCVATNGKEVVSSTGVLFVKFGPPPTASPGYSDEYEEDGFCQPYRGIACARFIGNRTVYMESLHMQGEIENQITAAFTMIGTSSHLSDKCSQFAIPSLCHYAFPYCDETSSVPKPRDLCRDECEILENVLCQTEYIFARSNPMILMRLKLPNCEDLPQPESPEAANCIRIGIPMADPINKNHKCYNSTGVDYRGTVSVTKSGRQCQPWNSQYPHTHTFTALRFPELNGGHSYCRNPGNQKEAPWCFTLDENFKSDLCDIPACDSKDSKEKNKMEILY

The target of the first assay is T1, human ROR1 expressed on the surface of cancer cells (human, UniProt Q01973 30-937). As to the kind of experiment: cell-based or functional assay.
T1 sequence (Q01973 30-937): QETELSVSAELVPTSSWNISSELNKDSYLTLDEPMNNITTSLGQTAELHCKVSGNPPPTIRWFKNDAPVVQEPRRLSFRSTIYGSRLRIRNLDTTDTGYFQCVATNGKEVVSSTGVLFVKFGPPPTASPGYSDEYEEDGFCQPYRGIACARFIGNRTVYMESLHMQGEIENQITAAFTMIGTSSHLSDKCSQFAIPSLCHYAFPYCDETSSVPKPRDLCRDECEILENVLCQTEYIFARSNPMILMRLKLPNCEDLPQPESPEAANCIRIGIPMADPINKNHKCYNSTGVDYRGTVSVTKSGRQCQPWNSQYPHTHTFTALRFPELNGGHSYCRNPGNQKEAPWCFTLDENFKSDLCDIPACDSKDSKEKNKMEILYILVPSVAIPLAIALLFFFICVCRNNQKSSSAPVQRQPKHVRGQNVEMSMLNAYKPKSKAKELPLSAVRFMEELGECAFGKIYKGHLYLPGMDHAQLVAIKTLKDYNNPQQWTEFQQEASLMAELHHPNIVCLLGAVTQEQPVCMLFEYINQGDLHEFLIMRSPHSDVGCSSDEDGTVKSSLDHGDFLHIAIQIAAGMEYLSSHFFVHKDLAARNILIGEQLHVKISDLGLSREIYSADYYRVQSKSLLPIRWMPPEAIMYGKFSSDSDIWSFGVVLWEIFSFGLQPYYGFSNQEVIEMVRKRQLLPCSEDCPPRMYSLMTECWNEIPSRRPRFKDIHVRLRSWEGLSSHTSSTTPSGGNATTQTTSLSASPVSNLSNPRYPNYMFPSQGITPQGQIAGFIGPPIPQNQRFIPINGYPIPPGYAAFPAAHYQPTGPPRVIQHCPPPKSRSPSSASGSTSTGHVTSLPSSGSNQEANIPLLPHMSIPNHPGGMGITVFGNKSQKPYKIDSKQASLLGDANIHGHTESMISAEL
Turning to B1, the “EC50 nM, redirected cell killing of Calu-3 cells by pan T-cells (LDH release)” value stood at 0.0027 nM; the “EC50 nM, redirected cell killing of JIMT-1 cells by pan T-cells (LDH release)” value was determined as 0.0022 nM; the “EC50 nM, redirected cell killing of NCI-H1975 cells by pan T-cells (LDH release)” value was 0.0039 nM. Regarding B2, the “EC50 nM, redirected cell killing of Calu-3 cells by pan T-cells (LDH release)” value was determined as 0.0044 nM; the “EC50 nM, redirected cell killing of JIMT-1 cells by pan T-cells (LDH release)” value came out at 0.0052 nM; the “EC50 nM, redirected cell killing of NCI-H1975 cells by pan T-cells (LDH release)” value came to 0.0153 nM.

The next assay addresses T2, His-tagged soluble human ROR1 (shROR1-His) (human, UniProt Q01973 30-406).
T2 construct: also called ROR1 protein; immobilized ROR1; not shown: His-Tag
As to the kind of experiment: SPR (BIACORE), trivalent binding molecule 6.25 to 100 nM passed over immobilized shROR1-His. Here is the method: The binding kinetics of each of the ROR1×CD3×CD8 trivalent binding molecules to ROR1 was investigated using BIACORE® analysis in which each trivalent binding molecule (6.25 to 100 nM) was passed over immobilized shROR1-His essentially as described above.
On to B1, for which the Kd (commonly the equilibrium constant for the complex coming apart) worked out at 1.3 nM. In the case of B3, binding was characterised by a dissociation constant (Kd) of 0.19 nM.

The molecule B4 gave a dissociation constant (Kd) of 0.26 nM. Take B2: the Kd is 1.6 nM. This Kd lies about 6.2-fold higher than the previous one.

Another assay addresses T2, His-tagged soluble human ROR1 …. As to the kind of experiment: SPR (Biacore), diabody captured via anti-E/K-coil, shROR1-His as analyte. How it is done:
The binding kinetics of DART-1 to DART-6, DART-10 to DART-17, DART-20 to DART-33 was investigated using Biacore analysis in which ROR1 protein was passed over immobilized diabodies. Briefly, each diabody construct was captured on immobilized anti-E/K-coil surface and was incubated with shROR1-His at 25 and 100 nM, and the kinetics of binding were determined via Biacore analysis.
On the technique in general: Surface plasmon resonance follows binding to a sensor surface in real time, without labels.
Regarding B5, binding was characterised by a dissociation constant (Kd) of 1.2 nM. With B6, the Kd was determined as 1.3 nM. This Kd and that of the molecule before are within 1.5-fold of each other. B7 displayed a dissociation constant (Kd) of 2.4 nM. Molecule B8 showed a Kd of 1.2 nM. Turning to B9, binding was put at a Kd of 1.5 nM. Molecule B10 gave a dissociation constant (Kd) of 1.3 nM. B11 came in with a dissociation constant (Kd) of 1.2 nM.

In turn, B12 yielded a Kd of 1.2 nM. With B13, the Kd stood at 0.9 nM.

A further assay deals with T1, human ROR1 expressed on the surface of …. Briefly: cell-based or functional assay. This is another data set of the same source.
As for B14, the “MR(%) (maximum response), redirected cell killing of HBL-2 cells (LDH release)” value was determined as 25.6%; the “MR(%) (maximum response), redirected cell killing of JIMT-1 cells (LDH release)” value was determined as 37.3%; the “MR(%) (maximum response), redirected cell killing of Jeko-1 cells (LDH release)” value worked out at 36.4%. Turning to B11, the “MR(%) (maximum response), redirected cell killing of HBL-2 cells (LDH release)” value is 27%; the “MR(%) (maximum response), redirected cell killing of JIMT-1 cells (LDH release)” value came out at 40%; the “MR(%) (maximum response), redirected cell killing of Jeko-1 cells (LDH release)” value worked out at 38.2%.
